B1: Zinc finger MYM-type protein 3, residues 589 to 668; numbered along this chain, Q14202 (parent)
chain: LSCHYCHSLFSGKPEVLDWQDQVFQFCCRDCCEDFKRLRGVVSQCEHCRQEKLLHEKLRFSGVEKSFCSEGCVLLYKQDF

Variants of: B1
Test: abundance fitness (aPCA) (normalised: wild type 0, dead -1); higher = more abundant; growth selection in yeast, the domain comes from the species named
Details: Homo sapiens

Abundance fitness of substitutions, site by site:
F35: C -0.467; H -0.219; M -0.071; L -0.641; G -0.317; I -0.624; E -0.157; D -0.549; A -0.079; K -0.529
C27: E -0.721; Q -0.653; W -0.859; V -0.692; Y -0.798; F -0.607; L -0.89; S -0.892; I -0.752; H -0.517; N -0.706; D -0.352; M -0.472; G -0.572; P -0.483; R -0.756; K -0.882; A -0.673
D34: V -0.079; H -0.057; T -0.178; R -0.093; S -0.164; Y 0.105; G 0.024; M 0.17; W -0.1; Q -0.136; I -0.18; F -0.192; P -0.384; K -0.008; E -0.01; A 0.064
E33: R -0.193; T -0.093; G -0.157; A -0.037; V -0.081; F -0.103; W -0.254; D 0.072; L -0.171; H 0.124; K -0.353; N -0.018; C -0.151; Y -0.173; Q -0.038; P -0.811
C28: P -0.607; S -0.021; D 0.041; V -0.321; A 0.017; I -0.703; G 0.08; E -0.228; K 0.105; H -0.081; M 0.129; Q 0.087; F -0.83; L -0.758; T 0.11; W -0.973; Y -0.557; N -0.16; R 0.074
C31: V -1.14; I -1.02; W -1.26; Q -0.668; M -0.778; D -0.545; G -0.8; E -0.573; R -0.901; T -1.02; S -0.986; A -0.655; P -1.02
C32: R -0.176; V 0.038; E -0.203; Y 0.067; L -0.027; W -0.403; G -0.253; F -0.237; A -0.026; S -0.227; P -0.574; T -0.108; D -0.521; Q -0.08; M 0.214; N -0.239; I -0.113; K 0.157
Q25: L -0.163; M 0.198; W 0.033; V 0.032; I -0.084; K 0.113; S 0.016; Y 0.025
F26: V -0.515; H -0.666; W -0.522; E -0.506; D -0.657; P -0.664; T -0.489; G -0.603; I -0.731; C -0.444; Q -0.482; A -0.49; R -0.603; K -0.524; N -0.391; M 0.134; Y -0.409
R29: M 0.235; Y 0.26; W -0.049; G 0.008; D 0.082; P 0.068; E 0.013; H 0.275; F 0.095; T -0.002; K 0.002; C 0.08; N 0.206; I 0.014; A 0.069; S 0.009
D30: T 0.131; V 0.109; S 0.055; Q -0.036; L -0.012; F -0.263; Y -0.164; G 0.057; I -0.243; K 0.104; W -0.227; A 0.027; N -0.069; E 0.014; M 0.3; C 0.008
